Laboratory results from US20180194839A1 (Novartis, published 2018).

T1: human IL-17A (construct not stated) (human, UniProt Q16552 24-155, limits assumed)
T1 construct: also called huIL-17A; human IL-17A biotin
T1 sequence: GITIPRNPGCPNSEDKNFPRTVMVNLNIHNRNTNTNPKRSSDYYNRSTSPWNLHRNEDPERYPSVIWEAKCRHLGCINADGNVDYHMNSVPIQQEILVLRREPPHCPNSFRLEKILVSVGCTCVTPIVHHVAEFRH


How the values were obtained:
[1] = biological target: T1, human IL-17A (construct not stated); assay: ELISA on coated huIL-17A, crude Fab extract
[2] = biological target: T1, human IL-17A (construct not stated); assay: ELISA on coated huIL-17A, crude Fab extract, wash of at least 3 h
[3] = biological target: T1, human IL-17A (construct not stated); assay: ELISA on coated huIL-17A, crude Fab extract, overnight with 200 nM XAB1 Fab as competitor

Binder | Classic ELISA (normalized to XAB1 Fab) [1] | Off-rate ELISA (normalized to XAB1 Fab) [2] | Competition ELISA (normalized to XAB1 Fab) [3]
MB454 (Fab, V domains shown, 32 stays A); heavy chain C-terminal Flag tag) VH: EVQLVESGGDLVQPGGSLRLSCAASGFTFSSYWMSWVRQAPGKGLEWVANIKQDGSEKYYVDSVKGRFTISRDNAKNSLYLQMNSLRAEDTAVYYCARDRGSLYYWGQGTLVTVSS VL: AIQLTQSPSSLSASVGDRVTITCRPSQGILWALAWYQQKPGKAPKLLIYDASSLENGVPSRFSGSGSGTDFTLTISSLQPEDFATYYCQQFNSYPLTFGGGTKVEIK | 2.9 ratio to XAB1 Fab | 34.2 ratio to XAB1 Fab | 36.6 ratio to XAB1 Fab
MB456 (Fab, V domains shown, heavy chain C-terminal Flag tag) VH: EVQLVESGGDLVQPGGSLRLSCAASGFTFSSYWMSWVRQAPGKGLEWVANIKQDGSEKYYVDSVKGRFTISRDNAKNSLYLQMNSLRAEDTAVYYCARDRGSLYYWGQGTLVTVSS VL: AIQLTQSPSSLSASVGDRVTITCRPSQGILWHLAWYQQKPGKAPKLLIYDASSLENGVPSRFSGSGSGTDFTLTISSLQPEDFATYYCQQFNSYPLTFGGGTKVEIK | 2.4 ratio to XAB1 Fab | 45.1 ratio to XAB1 Fab | 46.7 ratio to XAB1 Fab
MB438 (Fab, V domains shown, 32 stays A); heavy chain C-terminal Flag tag) VH: EVQLVESGGDLVQPGGSLRLSCAASGFTFSSYWMSWVRQAPGKGLEWVANIKQDGSEKYYVDSVKGRFTISRDNAKNSLYLQMNSLRAEDTAVYYCARDRGSLYYWGQGTLVTVSS VL: AIQLTQSPSSLSASVGDRVTITCRPSQGIPYALAWYQQKPGKAPKLLIYDASSLENGVPSRFSGSGSGTDFTLTISSLQPEDFATYYCQQFNSYPLTFGGGTKVEIK | 2.7 ratio to XAB1 Fab | 41.5 ratio to XAB1 Fab | 41.1 ratio to XAB1 Fab
MB432 (Fab, V domains shown, 32 stays A); heavy chain C-terminal Flag tag) VH: EVQLVESGGDLVQPGGSLRLSCAASGFTFSSYWMSWVRQAPGKGLEWVANIKQDGSEKYYVDSVKGRFTISRDNAKNSLYLQMNSLRAEDTAVYYCARDRGSLYYWGQGTLVTVSS VL: AIQLTQSPSSLSASVGDRVTITCRPSQGILFALAWYQQKPGKAPKLLIYDASSLENGVPSRFSGSGSGTDFTLTISSLQPEDFATYYCQQFNSYPLTFGGGTKVEIK | 2.3 ratio to XAB1 Fab | 44.2 ratio to XAB1 Fab | 37.3 ratio to XAB1 Fab
MB458 (Fab, V domains shown, heavy chain C-terminal Flag tag) VH: EVQLVESGGDLVQPGGSLRLSCAASGFTFSSYWMSWVRQAPGKGLEWVANIKQDGSEKYYVDSVKGRFTISRDNAKNSLYLQMNSLRAEDTAVYYCARDRGSLYYWGQGTLVTVSS VL: AIQLTQSPSSLSASVGDRVTITCRPSQGIWYQLAWYQQKPGKAPKLLIYDASSLENGVPSRFSGSGSGTDFTLTISSLQPEDFATYYCQQFNSYPLTFGGGTKVEIK | 2.7 ratio to XAB1 Fab | 33 ratio to XAB1 Fab | 42.1 ratio to XAB1 Fab
MB461 (Fab, V domains shown, heavy chain C-terminal Flag tag) VH: EVQLVESGGDLVQPGGSLRLSCAASGFTFSSYWMSWVRQAPGKGLEWVANIKQDGSEKYYVDSVKGRFTISRDNAKNSLYLQMNSLRAEDTAVYYCARDRGSLYYWGQGTLVTVSS VL: AIQLTQSPSSLSASVGDRVTITCRPSQGIYWTLAWYQQKPGKAPKLLIYDASSLENGVPSRFSGSGSGTDFTLTISSLQPEDFATYYCQQFNSYPLTFGGGTKVEIK | 2.9 ratio to XAB1 Fab | 49.8 ratio to XAB1 Fab | 62.8 ratio to XAB1 Fab
MB447 (Fab, V domains shown, heavy chain C-terminal Flag tag) VH: EVQLVESGGDLVQPGGSLRLSCAASGFTFSSYWMSWVRQAPGKGLEWVANIKQDGSEKYYVDSVKGRFTISRDNAKNSLYLQMNSLRAEDTAVYYCARDRGSLYYWGQGTLVTVSS VL: AIQLTQSPSSLSASVGDRVTITCRPSQGIFWWLAWYQQKPGKAPKLLIYDASSLENGVPSRFSGSGSGTDFTLTISSLQPEDFATYYCQQFNSYPLTFGGGTKVEIK | 3 ratio to XAB1 Fab | 45.5 ratio to XAB1 Fab | 57 ratio to XAB1 Fab
MB450 (Fab, V domains shown, heavy chain C-terminal Flag tag) VH: EVQLVESGGDLVQPGGSLRLSCAASGFTFSSYWMSWVRQAPGKGLEWVANIKQDGSEKYYVDSVKGRFTISRDNAKNSLYLQMNSLRAEDTAVYYCARDRGSLYYWGQGTLVTVSS VL: AIQLTQSPSSLSASVGDRVTITCRPSQGIMWWLAWYQQKPGKAPKLLIYDASSLENGVPSRFSGSGSGTDFTLTISSLQPEDFATYYCQQFNSYPLTFGGGTKVEIK | 2.9 ratio to XAB1 Fab | 41.5 ratio to XAB1 Fab | 53.3 ratio to XAB1 Fab
MB491 (Fab, V domains shown, heavy chain C-terminal Flag tag) VH: EVQLVESGGDLVQPGGSLRLSCAASGFTFSSYWMSWVRQAPGKGLEWVANIKQDGSEKYYVDSVKGRFTISRDNAKNSLYLQMNSLRAEDTAVYYCARDRGSLYYWGQGTLVTVSS VL: AIQLTQSPSSLSASVGDRVTITCRPSQGIFFWLAWYQQKPGKAPKLLIYDASSLENGVPSRFSGSGSGTDFTLTISSLQPEDFATYYCQQFNSYPLTFGGGTKVEIK | 2.1 ratio to XAB1 Fab | 43 ratio to XAB1 Fab | 44.2 ratio to XAB1 Fab
MB453 (Fab, V domains shown, heavy chain C-terminal Flag tag) VH: EVQLVESGGDLVQPGGSLRLSCAASGFTFSSYWMSWVRQAPGKGLEWVANIKQDGSEKYYVDSVKGRFTISRDNAKNSLYLQMNSLRAEDTAVYYCARDRGSLYYWGQGTLVTVSS VL: AIQLTQSPSSLSASVGDRVTITCRPSQGIVFWLAWYQQKPGKAPKLLIYDASSLENGVPSRFSGSGSGTDFTLTISSLQPEDFATYYCQQFNSYPLTFGGGTKVEIK | 2.7 ratio to XAB1 Fab | 43.3 ratio to XAB1 Fab | 46.4 ratio to XAB1 Fab
MB433 (Fab, V domains shown, heavy chain C-terminal Flag tag) VH: EVQLVESGGDLVQPGGSLRLSCAASGFTFSSYWMSWVRQAPGKGLEWVANIKQDGSEKYYVDSVKGRFTISRDNAKNSLYLQMNSLRAEDTAVYYCARDRGSLYYWGQGTLVTVSS VL: AIQLTQSPSSLSASVGDRVTITCRPSQGIYWGLAWYQQKPGKAPKLLIYDASSLENGVPSRFSGSGSGTDFTLTISSLQPEDFATYYCQQFNSYPLTFGGGTKVEIK | 2.3 ratio to XAB1 Fab | 39.7 ratio to XAB1 Fab | 29.3 ratio to XAB1 Fab

Further lines, results first:

Classic ELISA (normalized to XAB1 Fab) [1] | Off-rate ELISA (normalized to XAB1 Fab) [2] | Competition ELISA (normalized to XAB1 Fab) [3] | Binder
2.7 ratio to XAB1 Fab | 34.7 ratio to XAB1 Fab | 41 ratio to XAB1 Fab | MB457 (Fab, V domains shown, 30 stays I); heavy chain C-terminal Flag tag) VH: EVQLVESGGDLVQPGGSLRLSCAASGFTFSSYWMSWVRQAPGKGLEWVANIKQDGSEKYYVDSVKGRFTISRDNAKNSLYLQMNSLRAEDTAVYYCARDRGSLYYWGQGTLVTVSS VL: AIQLTQSPSSLSASVGDRVTITCRPSQGIIWSLAWYQQKPGKAPKLLIYDASSLENGVPSRFSGSGSGTDFTLTISSLQPEDFATYYCQQFNSYPLTFGGGTKVEIK
3.1 ratio to XAB1 Fab | 47.1 ratio to XAB1 Fab | 45.2 ratio to XAB1 Fab | MB483 (Fab, V domains shown, heavy chain C-terminal Flag tag) VH: EVQLVESGGDLVQPGGSLRLSCAASGFTFSSYWMSWVRQAPGKGLEWVANIKQDGSEKYYVDSVKGRFTISRDNAKNSLYLQMNSLRAEDTAVYYCARDRGSLYYWGQGTLVTVSS VL: AIQLTQSPSSLSASVGDRVTITCRPSQGIFWTLAWYQQKPGKAPKLLIYDASSLENGVPSRFSGSGSGTDFTLTISSLQPEDFATYYCQQFNSYPLTFGGGTKVEIK
2.9 ratio to XAB1 Fab | 40.4 ratio to XAB1 Fab | 51.5 ratio to XAB1 Fab | MB448 (Fab, V domains shown, heavy chain C-terminal Flag tag) VH: EVQLVESGGDLVQPGGSLRLSCAASGFTFSSYWMSWVRQAPGKGLEWVANIKQDGSEKYYVDSVKGRFTISRDNAKNSLYLQMNSLRAEDTAVYYCARDRGSLYYWGQGTLVTVSS VL: AIQLTQSPSSLSASVGDRVTITCRPSQGIVWMLAWYQQKPGKAPKLLIYDASSLENGVPSRFSGSGSGTDFTLTISSLQPEDFATYYCQQFNSYPLTFGGGTKVEIK
2.4 ratio to XAB1 Fab | 44.4 ratio to XAB1 Fab | 39.5 ratio to XAB1 Fab | MB434 (Fab, V domains shown, heavy chain C-terminal Flag tag) VH: EVQLVESGGDLVQPGGSLRLSCAASGFTFSSYWMSWVRQAPGKGLEWVANIKQDGSEKYYVDSVKGRFTISRDNAKNSLYLQMNSLRAEDTAVYYCARDRGSLYYWGQGTLVTVSS VL: AIQLTQSPSSLSASVGDRVTITCRPSQGIWWYLAWYQQKPGKAPKLLIYDASSLENGVPSRFSGSGSGTDFTLTISSLQPEDFATYYCQQFNSYPLTFGGGTKVEIK
1.9 ratio to XAB1 Fab | 58.5 ratio to XAB1 Fab | 64.9 ratio to XAB1 Fab | MB486 (Fab, V domains shown, heavy chain C-terminal Flag tag) VH: EVQLVESGGDLVQPGGSLRLSCAASGFTFSSYWMSWVRQAPGKGLEWVANIKQDGSEKYYVDSVKGRFTISRDNAKNSLYLQMNSLRAEDTAVYYCARDRGSLYYWGQGTLVTVSS VL: AIQLTQSPSSLSASVGDRVTITCRPSQGIWWMLAWYQQKPGKAPKLLIYDASSLENGVPSRFSGSGSGTDFTLTISSLQPEDFATYYCQQFNSYPLTFGGGTKVEIK
